Data on two molecules can be found in patent US20150030596A1 (SAMSUNG ELECTRONICS, published 2015).

In test [1] the target is T1, EGFR-Fc (#344-ER, R&D Systems) (UniProt P00533 25-645).
T1 construct: Bought reagent; also called EGFR (R&D systems); EGFR (#344-ER, R&D Systems); not shown: Fc part of the bought fusion protein; not described
As to the kind of experiment: SPR (Biacore T100); ME-19 captured on human Fab binder on a CM5 chip, EGFR-Fc as analyte. As to the method: Human Fab binder (GE Healthcare) was immobilized on the surface of CM5 chip (#BR-1005-30, GE) according to the manufacturer's manual. […] 10 mM Glycine-HCl (pH 1.5) solution was added hereto, to regenerate the surface. To determine the affinity, the obtained data were fitted using BIA evaluation software (GE Healthcare, Biacore T100 evaluation software).
Background: Surface plasmon resonance follows binding to a sensor surface in real time, without labels.

The target of test [2] is T1, EGFR-Fc (#344-ER, R&D Systems). In words: competitive ELISA: plate coated with EGFR (#344-ER, 0.25 ug/well), 20 ng/ml biotinylated EGF mixed with serially diluted ME-19, streptavidin/HRP detection, OD405. As to the method:
96-well immunoplate (Nunc) was coated with EGFR (#344-ER, R&D Systems) in the amount of 0.25 μg/well. […] The resulted reacting product was washed with PBS containing 0.05% (w/v) of Tween 20. HRP (Horse radish peroxidase) conjugated […] (#21140, Thermo scientific) was added to the each well and reacted at room temperature for 1 hour.

For test [3] the target is unchanged. In words: SPR (Biacore T100); ME-28 captured on human Fab binder on a CM5 chip, EGFR-Fc as analyte. As to the method:
The binding affinity of bispecific chimeric protein ME-28 to EGFR was examined using Biacore T100 (GE). Human Fab binder (GE Healthcare) was immobilized on the surface of CM5 chip (#BR-1005-30, GE) according to the manufacturer's manual. About 90˜120 RU of the bispecific chimeric protein ME-28 was captured, and various concentrations of EGFR-Fc (#344-ER, R&D Systems) were added to the captured bispecific chimeric protein. 10 mM Glycine-HCl (pH 1.5) solution was added hereto, to regenerate the surface. To determine the affinity, the obtained data were fitted using BIA evaluation software (GE Healthcare, Biacore T100 evaluation software).

B1: bispecific chimeric protein ME-19 (L3-1Y-IgG2 heavy chain-(G4S)2-anti-EGFR DARPin-01) (bispecific antibody)
heavy: EVQLVESGGGLVQPGGSLRLSCAASGFTFTDYYMSWVRQAPGKGLEWLGFIRNKANGYTTEYSASVKGRFTISRDNSKNTLYLQMNSLRAEDTAVYYCARDNWFAYWGQGTLVTVSSASTKGPSVFPLAPCSRSTSESTAALGCLVKDYFPEPVTVSWNSGALTSGVHTFPAVLQSSGLYSLSSVVTVPSSNFGTQTYTCNVDHKPSNTKVDKTVERKCCVECPPCPAPPVAGPSVFLFPPKPKDTLMISRTPEVTCVVVDVSHEDPEVQFNWYVDGVEVHNAKTKPREEQFNSTFRVVSVLTVVHQDWLNGKEYKCKVSNKGLPAPIEKTISKTKGQPREPQVYTLPPSREEMTKNQVSLTCLVKGFYPSDIAVEWESNGQPENNYKTTPPMLDSDGSFFLYSKLTVDKSRWQQGNVFSCSVMHEALHNHYTQKSLSLSPGKGGGGSGGGGSDLGKKLLEAARAGQDDEVRILMANGADVNADDTWGWTPLHLAAYQGHLEIVEVLLKNGADVNAYDYIGWTPLHLAADGHLEIVEVLLKNGADVNASDYIGDTPLHLAAHNGHLEIVEVLLKHGADVNAQDKFGKTAFDISIDNGNEDLAEILQ
light: DIQMTQSPSSLSASVGDRVTITCKSSQSLLASGNQNNYLAWYQQKPGKAPKMLIIWASTRVSGVPSRFSGSGSGTDFTLTISSLQPEDFATYYCQQSYSRPYTFGQGTKVEIKRTVAAPSVFIFPPSDEQLKSGTASVVCLLNNFYPREAKVQWKVDNALQSGNSQESVTEQDSKDSTYSLSSTLTLSKADYEKHKVYACEVTHQGLSSPVTKSFNRGEC
notes: The DARPin is fused to the C-terminus of each heavy chain; also called anti-c-Met/anti-EGFR DARPin bispecific chimeric protein
Turning to B1, in test [1], binding was characterised by a dissociation constant (Kd) of 0.35 nM; the off-rate constant (koff) (in general, the rate constant with which the complex falls apart) is 6.4e-05 s⁻¹; the kon (in general, the rate constant with which the complex forms) was 180000 M⁻¹ s⁻¹. For the same molecule, the “IC50 (read off the curve)” value in test [2] was ~0.5 µg/mL.

B2: bispecific chimeric protein ME-28 (L3-1Y-IgG2 heavy chain-(G4S)2-anti-EGFR DARPin-01-(G4S)2-anti-EGFR DARPin-69) (bispecific antibody)
heavy: EVQLVESGGGLVQPGGSLRLSCAASGFTFTDYYMSWVRQAPGKGLEWLGFIRNKANGYTTEYSASVKGRFTISRDNSKNTLYLQMNSLRAEDTAVYYCARDNWFAYWGQGTLVTVSSASTKGPSVFPLAPCSRSTSESTAALGCLVKDYFPEPVTVSWNSGALTSGVHTFPAVLQSSGLYSLSSVVTVPSSNFGTQTYTCNVDHKPSNTKVDKTVERKCCVECPPCPAPPVAGPSVFLFPPKPKDTLMISRTPEVTCVVVDVSHEDPEVQFNWYVDGVEVHNAKTKPREEQFNSTFRVVSVLTVVHQDWLNGKEYKCKVSNKGLPAPIEKTISKTKGQPREPQVYTLPPSREEMTKNQVSLTCLVKGFYPSDIAVEWESNGQPENNYKTTPPMLDSDGSFFLYSKLTVDKSRWQQGNVFSCSVMHEALHNHYTQKSLSLSPGKGGGGSGGGGSDLGKKLLEAARAGQDDEVRILMANGADVNADDTWGWTPLHLAAYQGHLEIVEVLLKNGADVNAYDYIGWTPLHLAADGHLEIVEVLLKNGADVNASDYIGDTPLHLAAHNGHLEIVEVLLKHGADVNAQDKFGKTAFDISIDNGNEDLAEILQGGGGSGGGGSDLGKKLLEAARAGQDDEVRILMANGADVNADDNAGRTPLHLAANFGHLEIVEVLLKNGADVNAKGHHCNTPLHLAAWAGHLEIVEVLLKYGADVNADDDEGYTPLHLAADIGDLEIVEVLLKYGADVNAWDMYGRTPLHLAASAGHLEIVEVLLKYGADVNAQDKFGKTAFDISIDNGNEDLAEILQ
light: B1 light
notes: Two DARPins are linked in tandem to each heavy chain C-terminus of the IgG; also called anti-c-Met/anti-EGFR (E01+E69) DARPins bispecific chimeric protein
Take B2: in test [3], the Kd (as a rule, the constant that tells how readily two partners part at equilibrium) was < 0.01 nM; the off-rate constant (koff) was < 3.4e-05 s⁻¹; the kon turned out to be 110000 M⁻¹ s⁻¹.
